Patent CN115819568A

Molecular target: EV A71病毒样颗粒(VLP) (Enterovirus A71)
Test: sandwich ELISA: rabbit anti-EV A71 VLP serum as capture, VLP titrated, antibody 1.2 ng/ul as detector, positive at OD450>0.15

B1: 肠道病毒A71单克隆抗体 1G10 (antibody, V domains shown)
VH: EVKLVESGGGLVKPGGSLKLSCAASGFTFSSYVMSWVRQTPEKRLEWVASISNGGSTFYPDSVKGRLTISRDNARNILYLQMSSLRSEDTAMYYCARAYGNDWYFDVWGAGTTVTVSS
VL: DIQMTQTTSSLSASLGDRVTISCRASQDISNYLNWYQQKPDGTVKLLIYYTSRLNSGVPSRFSGSGSGTDYSLTISNLEEEDIATYFCQQGNTAWTFGGGTKLEIKR
最低检出限度: 3.12 ng/mL
